Measurements: paper PMC7467569, “The Progesterone 5β-Reductase/Iridoid Synthase Family: A Catalytic Reservoir for Specialized Metabolism across Land Plants” (ACS Chemical Biology, 2020)

What was measured:
Experiment in all cases: purified protein
purified protein [1] = substrate: CC(=O)[C@H]1CC[C@H]2[C@@H]3CCC4=CC(=O)CC[C@]4(C)[C@H]3CC[C@]12C; settings: 250 μM NADPH, 50 mM HEPES/NaOH pH 7.0, 100 mM NaCl, 25 °C, 1.5% ethanol
purified protein [2] = substrate: C/C(C=O)=C\CC/C(C)=C/C=O; type: biochemical, Coccomyxa subellipsoidea; settings: 250 μM NADPH, 50 mM HEPES/NaOH pH 7.0, 100 mM NaCl, 25 °C, 0.1% tetrahydrofuran
purified protein [3] = substrate: CC(=O)[C@H]1CC[C@H]2[C@@H]3CCC4=CC(=O)CC[C@]4(C)[C@H]3CC[C@]12C; type: biochemical, Coccomyxa subellipsoidea; settings: 250 μM NADPH, 50 mM HEPES/NaOH pH 7.0, 100 mM NaCl, 25 °C, 1.5% ethanol
purified protein [4] = substrate: C/C(C=O)=C\CC/C(C)=C/C=O; settings: 250 μM NADPH, 50 mM HEPES/NaOH pH 7.0, 100 mM NaCl, 25 °C, 0.1% tetrahydrofuran
purified protein [5] = substrate: C/C(C=O)=C\CC/C(C)=C/C=O; type: biochemical, Catharanthus roseus; settings: 250 μM NADPH, 50 mM HEPES/NaOH pH 7.0, 100 mM NaCl, 25 °C, 0.1% tetrahydrofuran

B1: Arabidopsis thaliana 2 (PRISE2) (Arabidopsis thaliana) (protein)
chain: GSENGSLMRRNEVDENVALIFGVTGLVGREIVKTLLMSKPGWRIYGVARNPEINSMTKMYNFISCDLLNASETKQRLSPLQDIVSHVFWVTWSGEFPLDTDECCVQNKTMLMNALDAILPNAKRLKHFSLQTGMKHYVSLVEETMARGEGSSLYYYSEECPRKSSGKNFYYVLEDLLKEKITRSSVVWSVQRPGLLMGSSSRTLYNFMGSLCVYGAMCKYLNLPFVFGGTRECWEESYIDGSDSNLVAEQHIFAATSGKVREKGEAFNAINGVGFTWKEIWPEIGKKLGVQVNETTMFDEGFWFGREMVERKHVWDEIVVKEKLVRTEIEDLANWYFLDALFRCPFKLLGKREKVDRFGFKRKYRTLDSVLYWIDVMRDEKLIPL
Km (purified protein [1]): 5.7 ± 2.3 µM

B2: Coccomyxa subellipsoidea PRISE (Coccomyxa subellipsoidea C-169) (protein)
chain: GYVALIAGVTGVTGRNLALHLQNCDRWDAVYGGSRRPCGLGGKVKDLRMDLDNKTSLVDTLKGAQDVTHLFFCAYRPTESAATDVTTNFGMFKNVIEAGEGAGLKLKHVSFLSGTKWYGVHIGPVKTPSREDDPRAMSPNFYYDMEDYCIARVTKGADWTWSSVRPNPVCGFSTGSAMNLTMTIAVYASICKELGLPFRFPGSPQAYNVLLEVVDADLLACSMEYISTQPHAGNTSYNVSNGDVFRWSEVWPKLAAFFELPLAEPQKFSMTTMLAYHECVWQKLVEKHGLSKEVASYKDVATWGFGDWVFGQEKDWFSDVNKLRRTGFQEQNLDSAEMFLRQFKELRAAKLIP
notes: full-length synthetic gene in pOPINF, N-terminal His6 tag (no cleavage told), E. coli
Km (purified protein [2]): 7.0 ± 1.6 µM
kcat (purified protein [2]): 0.025 ± 0.001 s⁻¹
kcat/Km (purified protein [2]): 3580 M⁻¹ s⁻¹
Km (purified protein [3]): 23.6 ± 5.8 µM

B3: Arabidopsis thaliana 1 (PRISE1) (Arabidopsis thaliana) (protein)
chain: SWWWAGAIGAAKKKLDEDEPSQSFESVALIIGVTGIVGNSLAEILPLSDTPGGPWKVYGVARRPRPTWNADHPIDYIQCDVSDAEDTRSKLSPLTDVTHVFYVTWTNRESESENCEANGSMLRNVLQAIIPYAPNLRHVCLQTGTKHYLGPFTNVDGPRHDPPFTEDMPRLQIQNFYYTQEDILFEEIKKIETVTWSIHRPNMIFGFSPYSLMNIVGTLCVYAAICKHEGSPLLFPGSKKAWEGFMTASDADLIAEQQIWAAVDPYAKNEAFNCNNADIFKWKHLWKILAEQFGIEEYGFEEGKNLGLVEMMKGKERVWEEMVKENQLQEKKLEEVGVWWFADVILGVEGMIDSMNKSKEYGFLGFRNSNNSFISWIDKYKAFKIVP
Km (purified protein [4]): 41.8 ± 2.75 µM
kcat (purified protein [4]): 0.155 ± 0.004 s⁻¹
kcat/Km (purified protein [4]): 3710 M⁻¹ s⁻¹
Km (purified protein [1]): 6.0 ± 2.5 µM

B4: Catharanthus roseus 5 (PRISE5, ISY) (Catharanthus roseus) (protein)
chain: MSWWWKRSIGAGKNLPNQNKENGVCKSYKSVALVVGVTGIVGSSLAEVLKLPDTPGGPWKVYGVARRPCPVWLAKKPVEYIQCDVSDNQETISKLSPLKDITHIFYVSWIGSEDCQTNATMFKNILNSVIPNASNLQHVCLQTGIKHYFGIFEEGSKVVPHDSPFTEDLPRLNVPNFYHDLEDILYEETGKNNLTWSVHRPALVFGFSPCSMMNIVSTLCVYATICKHENKALVYPGSKNSWNCYADAVDADLVAEHEIWAAVDPKAKNQVLNCNNGDVFKWKHIWKKLAEEFGIEMVGYVEGKEQVSLAELMKDKDQVWDEIVKKNNLVPTKLKEIAAFWFADIAFCSENLISSMNKSKELGFLGFRNSMKSFVSCIDKMRDYRFIP
notes: codon-optimized gene from earlier study in pOPINF, N-terminal His6 tag (no cleavage told), E. coli
Km (purified protein [5]): 8.5 ± 1.5 µM
